The labels stand for the following.
B1: Flag-eIF2β, wild type [S. cerevisiae] / eIF2γ in yeast whole-cell extracts [yeast (endogenous in yeast whole-cell extracts)] (parent complex)
chain 1: MSSDLAAELGFDPALKKKKKTKKVIPDDFDAAVNGKENGSGDDLFAGLKKKKKKSKSVSADAEAEKEPTDDIAEALGELSLKKKKKKTKDSSVDAFEKELAKAGLDNVDAESKEGTPSANSSIQQEVGLPYSELLSRFFNILRTNNPELAGDRSGPKFRIPPPVCLRDGKKTIFSNIQDIAEKLHRSPEHLIQYLFAELGTSGSVDGQKRLVIKGKFQSKQMENVLRRYILEYVTCKTCKSINTELKREQSNRLFFMVCKSCGSTRSVSSIKTGFQATVGKRRRM
chain 2: MSDLQDQEPSIIINGNLEPVGEPDIVEETEVVAQETQETQDADKPKKKVAFTGLEEDGETEEEKRKREFEEGGGLPEQPLNPDFSKLNPLSAEIINRQATINIGTIGHVAHGKSTVVRAISGVQTVRFKDELERNITIKLGYANAKIYKCQEPTCPEPDCYRSFKSDKEISPKCQRPGCPGRYKLVRHVSFVDCPGHDILMSTMLSGAAVMDAALLLIAGNESCPQPQTSEHLAAIEIMKLKHVIILQNKVDLMREESALEHQKSILKFIRGTIADGAPIVPISAQLKYNIDAVNEFIVKTIPVPPRDFMISPRLIVIRSFDVNKPGAEIEDLKGGVAGGSILNGVFKLGDEIEIRPGIVTKDDKGKIQCKPIFSNIVSLFAEQNDLKFAVPGGLIGVGTKVDPTLCRADRLVGQVVGAKGHLPNIYTDIEINYFLLRRLLGVKTDGQKQAKVRKLEPNEVLMVNIGSTATGARVVAVKADMARLQLTSPACTEINEKIALSRRIEKHWRLIGWATIKKGTTLEPIA

From paper PMC4534855 (2015) come the findings set out here.

This assay covers variants of B1. In words: co-immunoprecipitation with FLAG affinity resin, quantified western; yeast whole-cell extracts; three biological replicates; read off a plot.
Turning to chain 1 MSSDLAAELGFDPALKKKKKTKKVIPDDFDAAVNGKENGSGDDLFAGLKKKKKKSKSVSADAEAEKEPTDDIAEALGELSLKKKKKKTKDSSVDAFEKELAKAGLDNVDAESKEGTPSANSSIQQEVGLPYSELLSRFFNILRTNNPELAGDRSGPKFRIPPPVCLRDGKKTIFSNIQDIAEKLHRSPEHLIQYLFAELGTSGSVDGQKRLVIKGKAQSKAMENVLRRYILEYVTCKTCKSINTELKREQSNRLFFMVCKSCGSTRSVSSIKTGFQATVGKRRRM [chain 1 F217A, chain 1 Q221A], the response is ~0.82 eIF2γ:eIF2β.

For chain 1 MSSDLAAELGFDPALKKKKKTKKVIPDDFDAAVNGKENGSGDDLFAGLKKKKKKSKSVSADAEAEKEPTDDIAEALGELSLKKKKKKTKDSSVDAFEKELAKAGLDNVDAESKEGTPSANSSIQQEVGLPYSELLSRFFNILRTNNPELAGDRSGPKFRIPPPVCLRDGKKTIFSNIQDIAEKLHRSPEHLIQYLFAELGTAGSVDGQKRLVIAGKFQSKQMENVLRRYILEYVTCKTCKSINTELKREQSNRLFFMVCKSCGSTRSVSSIKTGFQATVGKRRRM [chain 1 S202A, chain 1 K214A], the response is ~0.89 eIF2γ:eIF2β.
